Measurements taken from patent publication US20250281533A1 (LG CHEM, published 2025).

T1: Human MUC1 protein (human, UniProt P15941 1041-1153, limits assumed)
T1 construct: also called mucin1 antigen; human mucin1
T1 sequence: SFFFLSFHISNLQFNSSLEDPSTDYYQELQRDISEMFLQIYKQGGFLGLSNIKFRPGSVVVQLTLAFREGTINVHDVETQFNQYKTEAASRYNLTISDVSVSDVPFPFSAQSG

T2: C subunit of human MUC1 expressed in HEK293T cells (HEK293T-v1) (human, UniProt P15941 1098-1255, limits assumed)
T2 construct: domain: C subunit of MUC1; also called MUC1-C
T2 sequence (looked up): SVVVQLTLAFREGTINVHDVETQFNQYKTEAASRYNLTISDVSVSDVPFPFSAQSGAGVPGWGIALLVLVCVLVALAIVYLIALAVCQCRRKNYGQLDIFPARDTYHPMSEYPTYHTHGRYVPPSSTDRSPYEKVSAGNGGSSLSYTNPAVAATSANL

B1: scFv-Fc antibody including the scFv 2447_3A01 (Fc fusion)
scFv: EVQLLESGGGLVQPGGSLRLSCAASGFTFDDYAMHWVRQAPGKGLEWVSGISWNSGSIVYADFVKGRFTISRDNAKNSLYLQMNSLRAEDTALYYCAKDISSGWYPGTFDYWGQGTLVTVSSGGGGSGGGGSGGGASSYELTQDPAVSVALGQTVRITCQGDSLRSYYASWYQQKPGQAPVLVIYGKNNRPSGIPDRFSGSSSGNTASLTVTGAQAEDEADYYCSSRDSSDDVVFGGGTQLTVL
notes: scFv-Fc format as used in the Biacore assay; not shown: Fc part (with any hinge or linker) of the scFv-Fc
B2: scFv-Fc antibody including the scFv 2447_3A08 (Fc fusion)
scFv: EVQLVQSGAEVKKPGASVKVSCKASGYTFTSYGISWVRQAPGQGLEWMGWISAYNGNTNYAQKLQGRVTMTTDTSTSTAYMELRSLRSDDTAVYYCARDRATIFGVVTPFDYWGQGTLVTVSSGGGGSGGGGSGGGASSYELTQDPAVSVALGQTVRITCQGDSIRSYSASWYQQKPGQAPRLVIYGKNNRPSGIPDRVSGSTSGNTASLTVTGAQAEDEADYYCNSRDSSGNRVVFGGGTQLTVL
notes: as for B1
B3: scFv-Fc antibody including the scFv 2447_3B07 (Fc fusion)
scFv: QVQLVESGGVVVQPGGSLRLSCAASGFTFDDYAMHWVRQAPGRGLEWVSLTSWDGGSTYYADSVKGRFTISRDNSKNSLYLQMNSLRAEDTALYYCAKDHSSGWYNGGMDVWGQGTMVTVSSGGGGSGGGGSGGGASSYELTQDPAVSVALGQTVRITCQGDSLRSYYASWYQQKPGQAPVLVIYGKNNRPSGIPDRFSGSSSGNTASLTITGAQAEDEADYYCNSRDSSGNHVVFGGGTKLTVL
notes: as for B1
B4: scFv-Fc antibody including the scFv 2447_3H08 (Fc fusion)
scFv: EVQLLESGGGLVQPGRSLRLSCAASGFTFDDYAMHWVRQAPGKGLEWVSGISWNSGSIDYADSVKGRFTISRDNSKNTLYLQMNSLRAEDTAVYYCARDRSSGWYTGSFDYWGQGTLVTVSSGGGGSGGGGSGGGASSYELTQDPAVSVALGQTVRITCQGDSLRSYYASWYRQKPGQAPVLVIYGKNNRPSGIPDRFSGSSSGNTASLTIIGAQAEDEADYYCQSRDSSDNRVLFGGGTKVTVL
notes: scFv-Fc format as used in the Biacore assay; not shown: Fc part (and any hinge or linker) of the scFv-Fc
B5: scFv-Fc antibody including the scFv 2447_2H08 (Fc fusion)
scFv: EVQLVQSGAEVKKPGASVKVSCKASGYTFTNYGISWVRQAPGQGLEWMGWISAYNGNTNYAQKLQGRVTMTTDTSTSTAYMELRSLRSDDTAVYYCARDPHILTGYYRGGWFDPWGQGTTVTVSSGGGGSGGGGSGGGASSYELTQDPAVSVALGQTVTITCQGDSLRTSYAGWLQQKPGQAPVLVLYGKTSRPSGIPDRFSGSTSGNTASLTITGAQAEDEAEYFCHSRDSNDNYLEVVFGGGTKLTVL
notes: as for B1
B6: scFv-Fc antibody including the scFv 2447_3C08 (Fc fusion)
scFv: EVQLLESGGGLVQPGGSLRLSCAASGFTFDDYAMHWVRQAPGKGLEWVSGISWNSGSIGYADSVKGRFTISRDNAKNSLYLQMNSLRAEDTALYYCAKDRGSGYEGNYYGMDVWGQGTLVTVSSGGGGSGGGGSGGGASSYELTQDPAVSVALGQTVRITCQGDSLRSYYASWYQQKPGQAPVLVIYGKNNRPSGIPDRFSGTTSGNTASLTITGAQAEDEADYYCNSRDSSGNHYVFGTGTKVTVL
notes: as for B1
B7: scFv-Fc antibody including the scFv 2447_3H02 (Fc fusion)
scFv: EVQLLESGGGLVQPGRSLRLSCAASGFTFDDYAMHWVRQAPGKGLEWVSGISWDSGSIGYADSVKGRFTISRDNAKNSLYLQMNSLRAEDTALYYCAKDVSSGWYWYAFDIWGQGTLVTVSSGGGGSGGGGSGGGASSYELTQDPAVSVALGQTVRITCQGDILRSYYASWYQQKPGQAPVLVIYGKNNRPSGIPDRFSGSSSGNTASLTITGAQAEDEADYYCNSRDSSGNRVVFGGGTKLTVL
notes: as for B4
B8: scFv-Fc antibody including the scFv 2447_3A09 (Fc fusion)
scFv: EVQLLESGGGLVQPGRSLRLSCAATGFTFDDYAMHWVRQAPGKGLEWVSGISWNSGSIGYADSVKGRFTISRDNAKNSLYLQMNSLRAEDTASYYCAKDVSSGWYWYAFDIWGQGTLVTVSSGGGGSGGGGSGGGASSYELTQDPAVSVALGQTVRITCQGDSLRSYYASWYQQKPGQAPVLVIYGKNNRPSGIPGRFSGSSSGNTASLTVTGAQAEDEADYYCNSRDSGGSVVFGGGTKLTVL
notes: as for B1
B9: scFv-Fc antibody including the positive control scFv G03 (Fc fusion)
scFv: EVQLVQSGAEVKKPGATVKISCKVSGYTFTSYWMHWVQQAPGKGLEWIGYINPGTGYIEYNQKFKDRVTITADKSTDTAYMELSSLRSEDTAVYYCASSTAPFDYWGQGTLVTVSSGGGGSGGGGSGGGASEIVLTQSPGTLSLSPGERATLSCKASQDIKSYLSWYQQKPGQAPRLLIYYATRLADGIPDRFSGSGSGTDFTLTISRLEPEDFAVYYCLQYDESPYTFGQGTKLEIK
notes: not shown: Fc part (with any hinge or linker) of the scFv-Fc
B10: scFv-Fc antibody including the scFv 2447_3A12 (Fc fusion)
scFv: EVQLVQSGAEVKKPGASVKVSCKASGYTFTSYGISWVRQAPGQGLEWMGWISAYNGNTNYAQKLRGRVTMTTDTSTSTAYMELRSLRSDDTAVYYCARDPHILTGYYRGGWFDPWGQGTLVTVSSGGGGSGGGGSGGGASSYELTQDPAVSVVLGQTVRITCQGDSLRSYYASWYQQKPGQAPVLVIYGKNNRPSGIPDRFSGSSSGNTASLTITGAQAEDEADYYCNSRDSSGNHRVFGGGTKLTVL
notes: as for B1
B11: scFv 2447_3A01 (scFv)
scFv: B1 scFv
B12: scFv 2447_3A08 (scFv)
scFv: B2 scFv
B13: scFv 2447_3C08 (scFv)
scFv: B6 scFv
B14: scFv 2447_3A09 (scFv)
scFv: B8 scFv
notes: also called #5
B15: positive control scFv G03 (scFv)
scFv: B9 scFv
B16: scFv 2447_3A12 (scFv)
scFv: B10 scFv
notes: also called #6

These binders were tested against T1, Human MUC1 protein (assay: SPR, Biacore T200; scFv-Fc on anti-human IgG (Fc) CM5 chip, human MUC1 protein injected at 25-400 nM).
Procedure: Affinity of scFv-Fc antibody including the scFv for mucin1 antigen was measured using Biacore T200 (GE healthcare). Anti-human IgG (Fc) antibody (GE healthcare, Cat. No. BR-1008-39, final concentration of 25 ug/mL) was applied at a rate of 5 uL/min for 360 seconds on a Series S Sensor Chip CM5 (GE healthcare, Cat. No. BR-1005-30) using an Amine Coupling Kit (GE healthcare, Cat. No. BR-1000-50) and immobilized at about 5000-7000 RU.

Kd [nM] | Binder
51.5 | B1
320 | B2
51.7 | B3
39.9 | B4
94.8 | B5
24 | B6
58.8 | B7
62.1 | B8
27.6 | B9
13.8 | B10

These binders were tested against T2, C subunit of human MUC1 expressed in … (assay: flow cytometry (PE MFI, corrected to G03 at 380 ug/mL) on HEK293T-v1 cells expressing MUC1 C subunit).
Procedure: The soluble scFv prepared in Example 1 was diluted 5-fold to prepare a total of 8 serial dilutions. Each serial dilution was 380 μg/mL, 76 μg/mL, 15.2 μg/mL, 3.04 μg/mL, 0.608 μg/mL, 0.1216 μg/mL, 0.02432 μg/mL, 0.004864 μg/mL. A buffer used in soluble scFv dilution and cell washing was PBS containing 2% FBS and 10 mM EDTA. Four kinds of cells were prepared at a density of 1×10⁶/mL, respectively, and put in a 96 well U-bottom cell culture plate at a density of 1×10⁵/100 μl/well, followed by centrifugation at 1500 RPM for 5 minutes. The soluble scFv prepared previously was treated in an amount of 50 μl/well. The cells were left at 4° C. for 1 hour. 150 μl/well of the cell washing buffer was added thereto and then mixed, followed by centrifugation at 1500 RPM for 5 minutes. The supernatant was discarded, and 200 μl/well of the cell washing buffer was added thereto and then mixed, followed by centrifugation at 1500 RPM for 5 minutes. A goat anti-human IgG Fc-biotin antibody (Invitrogen, A18821) was diluted 500-fold, and 50 μl/well thereof was treated. The cells were left at 4° C. for 20 minutes. 150 μl/well of the cell washing buffer was added thereto and then mixed, followed by centrifugation at 1500 RPM for 5 minutes. The supernatant was discarded, and 200 μl/well of the cell washing buffer was added thereto and then mixed, followed by centrifugation at 1500 RPM for 5 minutes. PE-Streptavidin (BD Pharmigen, 554061) was diluted 1000-fold, and 50 μl/well thereof was treated. The cells were left at 4° C. for 20 minutes. 150 μl/well of the cell washing buffer was added thereto and then mixed, followed by centrifugation at 1500 RPM for 5 minutes. The supernatant was discarded, and 200 μl/well of the cell washing buffer was added thereto and then mixed, followed by centrifugation at 1500 RPM for 5 minutes. 80 μl/well of the cell washing buffer was added and mixed, followed by flow cytometry.
The affinity of the soluble scFv to the mucin1-expressing cells was confirmed by PE MFI values from the results of the flow cytometry. Each cell line without soluble scFv was stained with another fluorescent antibody (Goat anti-human IgG Fc-biotin antibody, PE-Streptavidin), which was used as a negative control value, and each cell line was treated with G03 at a concentration of 380 μg/mL, which was used as a positive control value, and MFI value was corrected as follows: […]

Binder | EC50 [µg/mL]
B11 | 4.78
B12 | 1.73
B13 | 1.38
B14 | 1.96
B15 | 3.46
B16 | 1.47
